Consider 20 sequences from the DeepSol protein solubility set.

The series can be described thus: soluble on expression in E. coli; label from the status in PepcDB or PDB records.
“GPGSMANDYLFTSESVSEGHPDKVADQISDAILDAILAQDKYSRVAAETLCNTGLVVLAGEITTTANIDYIQIARDTIKRIGYDNTDYGIDYRGCAVLVAYDKQSPDIAQGVDRAHDNNLDQGAGDQGLMFGYACDETPELMPLPIHLSHRLVERQANLRRDGRLPWLRPDAKSQVTVRYVDGKPHSIDTVVLSTQHAPEIDLPALREAVIEEVIKPTLPADLIKGDIKFLVNPTGRFVIGGPQGDCGLTGRKIIVDTYGGAAPHGGGAFSGKDPSKVDRSAAYAGRYVAKNIVAAGLASRALIQVSYAIGVAEPTSVMVNTFGTGRVSDETITKLVREHFDLRPKGIIQMLDLLRPIYEKTAAYGHFGREEPEFSWEAADKALALAEAAGVEPAVQVA”: the “soluble on expression in E. coli” value is given as “soluble”. Regarding “MNNNLQRDAIAAAIDVLNEERVIAYPTEAVFGVGCDPDSETAVMRLLELKQRPVDKGLILIAANYEQLKPYIDDTMLTDVQRETIFSRWPGPVTFVFPAPATTPRWLTGRFDSLAVRVTDHPLVVALCQAYGKPLVSTSANLSGLPPCRTVDEVRAQFGAAFPVVPGETGGRLNPSEIRDALTGELFRQG”, the “soluble on expression in E. coli” value is recorded as “soluble”. Consider “SPPNLTPAQSNRVCNSLALLQCVASHSDTRMLFLKAHIPLYLYPFLNTTSKSRPFEYLRLTSLGVIGALVKVDDTEVISFLLSTEIIPLCLRTMEMGSELSKTVATFIVQKILLDDVGMDYICTTAERFFAVGRVLGNMVQSLVEQPSPRLLKHIIRCYLRLSDNPRACAALASCLPDSLRDGSFSNCLREDPTARRWLQQLVHNVGVGRVPTHQGGGFEHML”, for which the “soluble on expression in E. coli” value was “not soluble”.

For the sequence “GKVFERCELARTLKRLGMDGYRGISLANWMCLAKWESGYNTRATNYNAGDRSTDYGIFQINSRYWCNDGKTPGAVNACHLSCSALLQDNIADAVACAKRVVRDPQGIRAWVAWRNRCQNRDVRQYVQGCGV”, the “soluble on expression in E. coli” value was “soluble”.

Take “MSLSEDLRFFEFFAGGGMARAGLGNQWQCLFANDMDRIKASTYIQNWGKDHFDSRDIREVNSEDLERNGDLAWASFPCQDLSVAGNGLGIGSSSAKDFTRSGALWPFLDLIDTLRQEERQPPLLVLENVVGLLTLEGGRDFAAICERLGEIGYRYGAVIIDAKHFLPQSRPRVFIIAVQRNIDIPCKLSRGMATANWHTPTLLRAYKSLTPILHADWVWWELGDAPILQENALESFIQREGVLWNTPEETKRIISMMAPAHLARLENAKCAGGVAVGSLYLRMRREGGINKQRAEITFSPLLGCLRTPRGGASRPRIIVVESGHVRTRLLTICEAARLMGLANTYILPEIYHHAFKVIGDGVAVPAVRFLAERLLEPLAIAARGQIAIPHEKAFMAEGHHHHHH”: the “soluble on expression in E. coli” value was “soluble”. The same measure for “MAHHHHHHMALEIDIDNVISKLIEVRGTRPGKNVNLTENEIKILCLSSREIFLNQPILLELEAPIKICGDIHGQFYDLLRLFEYGGFPPDANYLFLGDYVDRGKQSLETICLLLAYKIKYPENFFLLRGNHECASINRIYGFYDECKRRYSVKLWKTFIDCFNCLPVAAIIDEKIFCMHGGLSPELNNMEQIRKITRPTDVPDNGLLCDLLWSDPEKEINGWGENDRGVSFTFGQDVVHNFLRKHELDLICRAHQVVEDGYEFFAKRQLVTLFSAPNYCGEFDNAGAMMSVDETLMCSFQILKPVEKKKAAN”: “not soluble”; for “MELKKFELKTVELPILKPGTLRGKKEFRLLHISDLHMIPGQETKKAWVSALDSLSPDLVINTGDNLSDEKAVPDVLRALGPLMNRPGAFVFGTNDYWAPRPVNPFGYLFGKKREVSHIDLPWRAMRAAFIEHGWQDANQKRLEFQVGSVRLAISGVDDPHHDLDDYTEIAGAPNVDADLSIALLHAPEPRVLAQFEADGYQLSLSGHTHGGQLEHHHHHH”: “not soluble”; for “PIVLFPGQQATLSPQGISSPSPFDHTAITAWLRNQLVFYDTPLAEVVDTLNRHRHGRIFITNQKLKALKVSGVFSTDEPDTALDVMINTLPIHLLRLTDYLVLI”: “not soluble”. Next, “MSLKYDWILFDADETLFHFDAFKGMQLMFARKGVEFTEQDFHQYQEVNKPLWVDYQNGDITAAQLKHTRFAGWAEKLNTTTDELNSAFLQAMADICTLLPGAMELMQALQGKARLGIITNGFTELQDVRLAKTGMTDFFDQIVISEEVGIAKPDAGIFAHALERMGNPTKSRVLMVGDNPHSDILGGLNFGIETCWLNVHQHPKPDGITPHYEVTSLHELREILLAEGHHHHHH”: “soluble”; “MDVQQRLGGLLEITESRICLHCLGRHFVDLVEGPGNRLRGEKLQKKFSLKLSGPCMICGDVFDRIDEAAGMVKEKVDELGLEYSSVLVGTRLPPKMVELDDEIRKRLGIQTEGLKRDLNRELGKRVVKLLGCSAEFEDPDLVVMVDFRGDIRVWIQINPLFLEGRYRKLVRGIPQTRWPCRKCRGRGCERCNYTGKMYPTSVEELIAGPILEASQGRDARFHGSGREDVDVRMLGTGRPFVLEIREPRVRNLDPESLEEEVNRRAQGMVEVEGLRFSTRKRKVELKDSSQSRYKVYRALVELDGDVTDEDLERLGSLDIIKQRTPVRVSHRRADRVRERRVLEISWNLLDGCLELIIKGEGGLYIKELISGDSGRTEPSVSSVLGVPARCVALDVLEVGDEPSEKDLEHHHHHH”: “soluble”; “MLPAVDDRCSGGYAGDVVADETIIDLAGPSEGLGVRPDKQRAAAYAGAYYIRDKTHQLGTGEKMREVTKRGFGIGVTAVSRVGSADDLYSVSPVITAISIDKPSPGSTVALGRALQMHQANGFAASVKTKANARLPYLCVDMGYSVRPDFTTVVHDHGFAPVMRYPVSRQTVWASEKPEFGSQSPGPVQINSAFYCPAALPLARQRRLVRRLNELLDEQDGFEAHDQALQKLLPLLMGTNSRPLKFVSKRKRSPETIPTYQIDLVCPAVQGRVKCPLKPESLIIAFDQPEVKPTWSADRYRCCSKSQIRHTYSSEQWKLAQWGMVPGSWEHAIYYEAARSLTEQRFSIMKSQHLSGREHLKWSPRREPMISVIIALWIAATNLAIQDSHVAKMPRPSSIKKQKRRLERDLGRALMSTPPRT”: “not soluble”. Next, “MQPSHPSQPSHADRAAPTSALAPVVPPVLAEVVRSGFVEGRHRGSLVVLGADGAVELALGEVTAPVFPRSSNKPMQAAGVLRAGLDLAGERLALAAASHSGEPFHRDLVRKMLDEYGLDPALLQCPPDLPLDAEERETYLASGAEPDRVTMNCSGKHTAMLAVCAQQGWPLETYLDPEHPLQRVIHRVVEDAAGEPVAAVGTDGCGAPLMAISLVGLARAFRSFVAAEPGSAERRVADAMRAHPEYVAGSRRADTWLMREVPGSLSKMGAEAVQAVALPDGRALAFKIEDGATRALGPVLARALTLLGVDAPVVGRIGRAPLLGGGREVGEIRASFLEHHHHHH”: “not soluble”; “LWALGNDSVTAKSLTISNFTLTERKTRYELCFLLDAKNSNTVNEPLSELKNCYGKDVSNVFRTITADNGSEFSRLSEMLQGLGIEAYFTHPYSSWERGTNERHNGLIRRFIPKGKAIKDFSEETIKRIQQWLNSLPRRILGYKTPEECFNEEIHNLVNKNISAIA”: “not soluble”; “MGSDKIHHHHHHAEYIHVIPADASAVASINLNSLADKAGLNDKQNEGMKQKMMEALKSGMNAAAFQQLEKIMKNPSQSGIDVKAPVFVFTSKTFISPTIVAKVSNIEDLRASLDLMAKEGICQPIAEEEGYSFTSLQKNNLLVFNENAAVLTEAYGTSQMDVAKQTISTLLKQTEENSIASNGSFRKMQDQKGDINFFASMDAVPKMYTQQISLGLSSQIDLSEVKAVGNLNFEKGKIALQIETYSDNAETDALLKKQAQAVKKLNTTFLQNFPESTLAFLNIGVNGAAFYDLLFNNEEFRRNVSLAKADEVKSLFASFDGDISIGLINVTLNSVPTFAAYADAKNGNALKALYDNKKQLKLGKNEDIIQLGENEYVYKSRATNVFFGIRNKQMYATNDELLYKSISKPVEKSIKDAGYVSDMKGKNVFFVINMDAILDLPVVKMMAGFGGEEYQTYYKLASKISYIEAFSDSEGKTETAILLKNKDDNALKQIVDFAKQFAGM”: “not soluble”. As for “MEHTIAVIPGSFDPITYGHLDIIERSTDRFDEIHVCVLKNSKKEGTFSLEERMDLIEQSVKHLPNVKVHQFSGLLVDYCEQVGAKTIIRGLRAVSDFEYELRLTSMNKKLNNEIETLYMMSSTNYSFISSSIVKEVAAYRADISEFVPPYVEKALKKKFKLEHHHHHH”, the “soluble on expression in E. coli” value was “soluble”. Next, “GTVSATSPNKCKRPMNAFMLFAKKYRVEYTQMYPGKDNRAISVILGDRWKKMKNEERRMYTLEAKALAEEQKRLNPDCWK”: “soluble”; “MGSDKIHHHHHHMKRILFISPTTSMDNGAEKSIYYLMKHLIQLGHTVINVTHAIGGEPQDKHEQLYKMIGVKNYYLPTVKWWWPDAPGGEILNREEATSYYRQNVQDIAEIIDQNEIDLVISNTVNVFQGAIAASCQKVPHFWLIHEFPKNEFAYYADKIDFIEEYSSELFSVTGELNNFLTPLFNKKVHSFISYTEQETKVLKKGNQVRIVSVGRLTEGKNQLELIKAYKTLNRLDIELVFIGGWDSKYKAICDEYIHENKLQKNVKFLGNLDNPWEEVTDRDICVFPSSMETFGLVYVEAILRGLPVILSDNLGHLTAFEIFSAGQIYKLGDIEELVTKLEQVIESFRNFSDRARLDVERLRTLYTPEVAYKEILNSINHLEYTGHQNTNLSHIKELLTLNMHPTRLERYARLISNMATKIRHKLRL”: “not soluble”; “GHQLPIWKQDEKSLTENDYYSFYKNTFKAYDDPLAYVHFNVEGQISFNSILYIPGSLPWELSKNMFDEESRGIRLYVKRVFINDKFSESIPRWLTFLRGIVDSENLPLNVGREILQKSKMLSIINKRIVLKSISMMKGLKETGGDKWTKFLNTFGKYLKIGVVEDKENQEEIASLVEFYSINSGDKKTDLDSYIENMKEDQKCIYYISGENKKTAQNSPSLEKLKALNYDVLFSLEPIDEFCLSSLTVNKYKGYEVLDVNKAD”: “soluble”. Next, “MVNKVLVANRGEIAVRIIRACKELGIPTVAIYNEVESTARHVKLADEAYMIGTDPLDTYLNKQRIINLALEVGADAIHPGYGFLAENAEFAKMCEEAGITFIGPHWKVIELMGDKARSKEVMKKAGVPVVPGSDGVLKSLEEAKALAREIGYPVLLKATAGGGGRGIRICRNEEELVKNYEQASREAEKAFGRGDLLLEKFIENPKHIEYQVLGDKHGNVIHLGERDCSIQRRNQKLVEIAPSLILTPEKREYYGNIVTKAAKEIGYYNAGTMEFIADQEGNLYFIEMNTRIQVEHPVSEMVTGIDIVKWQIKIAAGEPLTIKQEDVKFNGYAIECRINAEDPKKNFAPSTRVIERYYVPGGFGIRVEHAAARGFEVTPYYDSMIAKLITWAPTWDEAVERMRAALETYEITGVKTTIPLLINIMKEKDFKAGKFTTKYLEEHPEVFEYEE”: “soluble”; “MAHHHHHHMAKAIGDGDTGDAWWANPEHLAAIDATAAAEAVVSVPHQPEKNTGTGCSSRITAMRYYMKPDTWTQTLLSDEGETARENRTDGEVPHSGSASTGAVTSSDPRGCNSDAHVHHQATSSLLSTASSVVTTTATEEASSLPAASSPLHGLPLHQLIEQHAALVRRLVQVLAPQRQTIPHVIRELCTTRVTSPSSAVASRVCVLPSMDASNAEPMQYTERDVAAAVEQLTSSHPRQPRLRELKSDGYLLMNLEGFADGKTRHKAVNRAYPALALHWPASVQQMDAMERYVDRDVVLDTRKRHPELSGEGSDKKQGQKRDRSRSSTSSNASGADEDGAHKARAPGYTSSPPSPPLGMAASPKRTAPTTSSRRFFQSLREYPRSLEHGDLHAWARGTAAQQARDCLQAATTLTQSSTSTVDGSSDAATLGPLPITNEEDVAVLRCQYDALAAAESVVEKQLRAYSDTVQELRGWYRGELCTQQFRYELEAWLRTQEESRAVLTDLYAQMHAMRYSLQRDLSNYLHLHALGVL”: “soluble”.
